This is an account of results in patent US20250250357A1.

The target of experiment [1] is monkey MSLN full-length protein expressed on HEK293T cells (HEK293T-monkey MSLN) (monkey). The experiment in a line: FACS on HEK293T-monkey MSLN cells.
The target in experiment [2] is human MSLN on OVCAR3 tumor cells (human) (UniProt Q13421). The experiment is described as follows: FACS, OVCAR3 cells. (In general: Flow cytometry measures light scatter and fluorescence of single cells or particles in a stream.)
Chain of human MSLN on OVCAR3 tumor cells (human) (Q13421 other isoform, or with tags, fused parts or gaps): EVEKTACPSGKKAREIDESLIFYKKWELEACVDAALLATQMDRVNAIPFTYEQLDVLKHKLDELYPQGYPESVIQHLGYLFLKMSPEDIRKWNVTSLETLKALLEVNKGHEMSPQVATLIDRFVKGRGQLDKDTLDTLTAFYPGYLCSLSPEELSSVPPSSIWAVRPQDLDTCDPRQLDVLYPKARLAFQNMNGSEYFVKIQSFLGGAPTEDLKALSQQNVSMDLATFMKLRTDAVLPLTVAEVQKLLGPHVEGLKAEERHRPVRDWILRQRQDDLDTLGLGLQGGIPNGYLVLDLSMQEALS

B1: S009-F8-31.22 (antibody, human IgG1, kappa, V domains shown)
VH: EVQLVESGGDLVKPGGSLKLSCAASGFTFSTYGMSWVRQTPDKRLEWVATISSGGSYTYYPDSLKGRFTISRDNAKNTLYLQMSSLKSEDTAMYYCARHEGYYYGKDYWGQGTTLTVSS
VL: DIVLTQSPATLSVTPGDSVSLSCRASHSISNNLHWYQQKSHESPRLLIKYASQSISGIPSKFSGSGSGTDFTLSINSVETEDFGMYFCQQTNSWPLTFGAGTKLELKR
As for B1, in experiment [1], the Maximum mean fluorescence intensity turned out to be 3390.

B2: S009-F8-9.16 (antibody, human IgG1, kappa, V domains shown)
VH: EVHLQQSGPVLVKPGASVKMSCKASGYTFTDYFMNWVKQSHGKSLEWIGVINPHNGYVNYNQKFQGRATLTVDKSSSTVYMELNSLTSEDSAVYHCARSAESAWFAYWGQRTLVTVSA
VL: DVLMTQTPLSLPVSLGDQVSISCRSSQSIVHVKGNTYLEWYLQKPGQSPELLIYKVSNRFSGVPDRFSGGGSGTDFTLKISRVEPEDLGVYYCFQGSHLPYTFGGGTKLEIKR
On to B2, for which, in experiment [1], the Maximum mean fluorescence intensity was 348.

B3: F3.80.22-H1 (scFv, not shown: small tags and cut ends)
scFv: DIVMTQTPLSLPVTPGEPASISCRSSQSLEHNNGNTYLHWFLQKPGQSPQLLIYKVSNRFSGVPDRFSGSGSGTDFTLKISRVEAEDVGVYYCSQSTHVPFTFGQGTKLEIKGGGGSGGGGSGGGGSEVQLVQSGAEVKKPGATVKISCKVSGYTFTDYEIHWVQQAPGKGLEWMGAFDPEIGGSAYNQKFKDRVTITADKSTDTAYMELSSLRSEDTAVYYCTDYYGSSSGYFDVWGQGTTVTVSS
In the case of B3, in experiment [2], the Maximum MFI worked out at 471 MFI.

B4: F3.80.22-H2 (scFv, not shown: small tags and cut ends)
scFv: DIVMTQTPLSLPVTPGEPASISCRSSQSLEHNNGNTYLHWFLQKPGQSPQLLIYKVSNRFSGVPDRFSGSGSGTDFTLKISRVEAEDVGVYYCSQSTHVPFTFGQGTKLEIKGGGGSGGGGSGGGGSEVQLVQSGAEVKKPGATVKISCKASGYTFTDYEIHWVQQAPGKGLEWMGAFDPEIGGSAYNQKFKDRVTITADKSTSTAYMELSSLRSEDTAVYYCTDYYGSSSGYFDVWGQGTTVTVSS
As for B4, in experiment [2], the Maximum MFI is 512 MFI.

B5: S009-F8-33.12 (antibody, human IgG1, kappa, V domains shown)
VH: EVQLQQSGAELVKPGASVKLSCTASAFNIKDYYMHWVKQRTEQGLEWIGRIDPEDGETKYAPKFQGKATITADTSSNTAYLQLSSLTSEDTAVYYCASGSGTGAMDYWGQGTSVTVSS
VL: DIVMTQSQKFMSTSVGDRVSITCKASQNVRTAVGWYQQKPGQSPKALIYLASNRHTGVPDRFTGSGSGTDFTLTISNVQSEDLADYFCLQHWNSPYTFGGGTKLVIKR
In experiment [1], B5 returned an EC50 of 0.64 nM and a Maximum mean fluorescence intensity of 106000.

B6: S009-F8-18.9 (antibody, human IgG1, kappa, V domains shown)
VH: EFQLQQSGPELVKPGASVKISCKASGYSFTDYNMNWVKQSNGKSLEWIGIINPNYGTTSYNQKFKGRATLTVDQSSSTAYVQLNSLTSEDSAVYYCARGGYDNEAMDYWGQGTSVTVSS
VL: QIVLTQSPAIMSASPGEKVTMTCSASSSVSYMHWYQQKSGTSPKRWIYDTSKLASGVPARFSGSGSGTSYSLTISSMEAEDAATYYCQQWSSNPPTFGAGTKLELKR
In the case of B6, in experiment [1], the EC50 was 0.81 nM and the Maximum mean fluorescence intensity is 24900.

B7: S009-F8-19.21 (antibody, human IgG1, kappa, V domains shown)
VH: EFQLQQSGPELVKPGASVKISCKTSGYSFTDYNMNWVKQSNGKSLEWIGVINPNYGTTGYNQKFKGKATLTVDQSSSTAYMQLNSLTSEDSAVYYCARGGYDGEAMDYWGHGTSVTVSS
VL: QIVLTQSPAIMSASPGEKVTMTCSASSSVNYMHWYQQKSGTSPKRWIYDTSKLASGVPARFSGSGSGTSYSLTISSMEAEDAATYYCQQWSSYPPTFGGGTKLEIKR
B7: in experiment [1], the EC50 was 0.3 nM and the Maximum mean fluorescence intensity was 24900.

B8: S009-F8-4.5 (antibody, human IgG1, kappa, V domains shown)
VH: QVQLQQPGAELVKPGASVKLSCKASGYTFTIYWMHWVKQRPGQGLEWIGMIHPNSGNTNYNEKFKSKATLTVDKSSSTAYMQLSSLTSEDSAVYYCSLIHWYFDVWGTGTTVTVSS
VL: QIVLTQSPAIMSASPGEKVTMTCSASSSVSYMYWYQQKPGSSPRLLIYDTSNLASGVPVRFSGSGSGTSYSLTISRMEAEDAATYYCQQWSSYPLTFGAGTKLELKR
As for B8, in experiment [1], the EC50 is 0.64 nM and the Maximum mean fluorescence intensity came out at 35000.

B9: S009-F8-13.8 (antibody, human IgG1, kappa, V domains shown)
VH: EFQLQQSGPELVKPGASVKISCKASGYSFTDYNMNWVKQTNGKSLEWIGIINPNYGTSSYNQKFKGKATLTVDQSSSTAYMQLNSLTSEDSAVYYCARVGRDNSGFDYWGQGTTLTVSS
VL: QIVLTQSPAIMSASPGEKVTMTCSASSSVSYMYWYQQKPGSSPRLLIYDTSNLASGVPVRFSGSGSGTSYSLTISRMEAEDAATYYCQQWSSYPPTFGSGTELEIKR
In experiment [1], B9 yielded an EC50 of 0.15 nM and a Maximum mean fluorescence intensity of 20500.

B10: S009-F8-29.1 (antibody, human IgG1, kappa, V domains shown)
VH: QVQLQQSGAELARPGASVKMSCKASGYTFISYTMHWVKQRPGQGLEWIGYINPSSGYTKYNQKFKDKATLTADKSSSTAYMQLNSLTSEDSAVYYCARYYSNPDYYAMDYWGQGTSVTVSS
VL: QIVLTQSPAIMSASPGEKVTITCSASSSVSYMHWFQQKPGTSPKLWIYSTSNLASGVPARFSGSGSGTSYSLTISRMEAEDAATYYCQQRSSYPLTFGGGTKLELKR
For B10, the Maximum mean fluorescence intensity in experiment [1] came out at 80.

B11: S009-F8-22.23 (antibody, human IgG1, kappa, V domains shown)
VH: QVQLKQSGPGLVQPSQSLSITCTVSGFSLFSYGVHWVRQSPGKGLEWLGVIWSGGSTDYNAAFISRLSISKDNSKSQVFFKMNSLQADDTAMYYCARNGGSMITTLYYAMDYWGQGTSVTVSS
VL: DVVMTQTPLSLPVSLGDQASISCRSSQSLVHSYGNTYLHWYLQKPGQSPKLLIYKVSNRFSGVPDRFSGSGSGTDFTLKISRVEAEDLGVYFCSQSTHIPFTFGGGTKLEIKR
In experiment [1], B11 showed an EC50 of 1.09 nM and a Maximum mean fluorescence intensity of 114000.

B12: S009-F8-32.3 (antibody, human IgG1, kappa, V domains shown)
VH: QVQLKESGPGLVAPSQSLSITCTVSGFSLSSYAISWVRQPPGKGLEWLGVIWTGGGTNYNSALKSRLSISKDNSKSQVFLKMNSLQTDDTARFYCARNNYGRLDYAMDYWGQGTSVTVSS
VL: DVVMTQTPLSLPVSLGDQASISCRSSQSLVHGNGNTYLHWYLQKPGQSPKLLIYKVSNRFSGVPDRFSGSGSGTDFTLKISRVETEDLGVYFCSQSTHVPFTFGSGTKLEIKR
In experiment [1], B12 registered an EC50 of 0.69 nM and a Maximum mean fluorescence intensity of 112000.

B13: S009-F8-36.12 (antibody, human IgG1, kappa, V domains shown)
VH: EVQLQQSGPELVKPGASVKISCKASGYTFTDYYMNWVKQSHGKSLEWIGDINPNNGGTSYNQKFKGKATLTVDKSSSTAYMELRSLTSEDSAVYYCASWGYGSSSRGYFDYWGQGTTLTVSS
VL: QIVLSQSPAILSASPGEKVTMTCRASSSVSYMHWYQQKPGSSPKPWIYATSNLASGVPARFSGSGSGTSYSLTISRVEAEDAATYYCQQWSSNPWTFGGGTKLEIKR
B13 registered a Maximum mean fluorescence intensity in experiment [1] of 173.

B14: S009-F8-5.15 (antibody, human IgG1, kappa, V domains shown)
VH: QVQLQQPGTELVKPGASVKLSCKASGYTFTSYWMHWVKQRPGQGLEWIGHSNPSNGGTNYNEKFKSKATLTVDKSSSTAYMQLSSLTSEDSAVYYCARWVRGSNYEYFDVWGTGTTVTVSS
VL: DIVMTQSQKFMSTTVGDRVSIICKASQNVGSAVAWCQQKPGQSPKLLIYSASNRYTGVPDRFTGSGSGTDFTLTISNMQSEDLADYFCQQYSSYPLTFAGGTKLEIKR
For B14, in experiment [1], the EC50 worked out at 0.18 nM and the Maximum mean fluorescence intensity was 20200.

B15: S009-F8-24.14 (antibody, human IgG1, kappa, V domains shown)
VH: EFQLQQSGPELVKPGASVKISCKASGYSFTDYNMNWVKLSNGKSLEWIGVIIPNYGTSSYNQKFKGKATLTVDQSSSTAYMQLNSLTSEDSAVYYCARWDNYYGSSLDYWGQGTTLTVSS
VL: DIVMTQSQKFMSTTVGDRVSITCKASQNVGTAVAWYQQKPGQSPKLLIYSASNRYTGVPDRFTGSGSGTDFILTISNMQSEDLADYFCQQYSSYPLTFGAGTKLELKR
As for B15, in experiment [1], the EC50 was 0.52 nM and the Maximum mean fluorescence intensity was determined as 105000.

B16: S009-F8-8.22 (antibody, human IgG1, kappa, V domains shown)
VH: EVQLQQSGPELVKPGASVKMSCKASGYTFTDYIIHWVKQSHGKSLEWIAYIFPNNGGTGYNQKFRGKATLTVNKSSSTAYMELRSLTSEDSAVYYCARWRLRQYFDVWGTGTTVTVSS
VL: DIVMTQSQKFMSTIVGDRVSITCKASQNVGTAVAWYQQKPGQSPKLLIYSASNRYTGVPDRFTGSGSGTDFTLTISNMQSEDLADYFCQQYSSYPLTFGGGTKLEIKR
Turning to B16, in experiment [1], the EC50 is 0.36 nM and the Maximum mean fluorescence intensity is 112000.

B17: S009-F8-12.13 (antibody, human IgG1, kappa, V domains shown)
VH: QVQLQQPGAELVKPGASVKLSCKASGYTFTSYWMHWVKQRPGQGLEWIGMIHPNSGSTNYNEKFKSKATLTVDKSSSTAYMQLSSLTSEDSAVYYCARRTPIITLVGHWYFDVWGTGTTVTVSS
VL: DIVMTQSHKFMSTSVGDRVSITCKASQDVGTAVAWYQQKPGQSPKLLIYWASTRHTGVPDRFTGSGSGTDFTLTISNVQSEDLADYFCQQYSSYPLTFGAGTKLELKR
In experiment [1], B17 displayed an EC50 of 0.08 nM and a Maximum mean fluorescence intensity of 21500.

B18: S009-F8-15.19 (antibody, human IgG1, kappa, V domains shown)
VH: EFQLQQSGPELVKPGASVKISCKASGYSFTDYNMNWVKQSNGKSLEWIGIINPYYGTTSNNQNFKGKATLTVDQSSSTAYMQLNSLTSDDSAVYYCARWLRRDAMDYWGQGTSVTVSS
VL: DIVMTPSHKFMSTSVGDRVSIACKASQDVGSSVAWYQQKPGQSPKLLIYWTSTRHTGVPDRFTGSGSGTDFTLTISNVQSEDLADYFCQQYSSYPWTFGGGTKLEIKR
In experiment [1], B18 showed an EC50 of 0.39 nM and a Maximum mean fluorescence intensity of 28200.

B19: S009-F8-27.1 (antibody, human IgG1, kappa, V domains shown)
VH: EVQLVESGGGLVKPGGSLKLSCAASGFTFSSYAMSWVRQTPEKRLEWVATISDGGNYTYYPDNVKGRFTISRDNAKNNLYLQMSHLKSEDTAMYYCAGDRGYPYAMDSWGQGTSVTVSS
VL: NIMMTQSPSSLAVSAGEKVTMSCKSSQSVLYSSNQKNYLAWYQQKPGQSPKLLIYWASTRESGVPDRFTGSGSGTDFTLTISNVHAEDLAVYYCHQYLSSLTFGAGTKLELKR
For B19, in experiment [1], the EC50 was 2.05 nM and the Maximum mean fluorescence intensity came out at 31300.

In general, EC50 refers to the concentration that produces a half-maximal response.
